Among the data in paper PMC10715180 are binding values, retold here.

Holding throughout (experiment): EMSA
Details in all cases: […] (binding temperature not stated)
(In general: In EMSA bound probe runs differently from free probe, usually more slowly.)

The target of data set [1] is PhoP D71N D71N (Mycobacterium abscessus subsp. massiliense CIP108297 (Mmas; subspecies name implied?)) (UniProt B1MHU9).
Data set [2] concerns the target PhoP K224A K224A (Mycobacterium abscessus subsp. massiliense CIP108297 (Mmas; subspecies name implied?)) (UniProt B1MHU9).
Data set [3] addresses PhoP (PhoPmas) WT, unphosphorylated (Mycobacterium abscessus subsp. massiliense CIP108297 (Mmas; subspecies name implied?)) (UniProt B1MHU9).

With “AGGTAATCTTCCCCCCAAAATTTACGATGCGCTGGATCTTCACTGTGAGCTTCCTGTGAGTTACTCACAGCAGATTGTCAGCCAACCGCGCCAGGTCGCCCTACAGTTGAGCC (double strand) [phoP promoter probe WT]”, the binding result is listed as “binds more weakly” in data set [1], “no binding” in data set [2] and “binds” in data set [3].
